# Measured values from US20250215059A1 (REGENTS OF THE UNIVERSITY OF COLORADO A BODY CORPORATE, published 2025).
# What was measured:
# [1] = molecular target: T1, tau aggregates in HEK293 tau biosensor cells (4R repeat domain of tau (K18) with the P301S mutation fused to … (UniProt P10636-8 244-372)); experiment: Halo (JF646) imaging; intensity in aggregate over adjacent region, five aggregates
# T1 construct: domain: 4R repeat domain of tau (K18); Aggregated, insoluble form inside cells; the aggregates are seeded with brain homogenate of tau transgenic mice and may hold other proteins and RNA; Number of chains in an aggregate not defined; also called cytoplasmic tau aggregates; nuclear tau aggregates; not shown: CFP or YFP fused to the repeat domain
# [2] = molecular target: T1, tau aggregates in HEK293 tau biosensor …; experiment: Halo (JF646) imaging in seeded HEK293 tau biosensor cells
# [3] = molecular target: T1, tau aggregates in HEK293 tau biosensor …; experiment: Halo (JF646) imaging; intensity in aggregate over adjacent region, 5 aggregates
# [4] = molecular target: T1, tau aggregates in HEK293 tau biosensor …; experiment: cell-based or functional assay
# T1 sequence (P10636 561-689 P618S): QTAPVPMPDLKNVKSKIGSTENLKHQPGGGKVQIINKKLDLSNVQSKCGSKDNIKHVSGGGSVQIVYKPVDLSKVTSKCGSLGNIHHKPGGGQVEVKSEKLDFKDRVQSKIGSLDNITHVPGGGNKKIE
mean enrichment in cytoplasmic tau aggregates [1] [ratio],binding result [2],mean enrichment in cytoplasmic tau aggregates [3] [ratio],"tau aggregation by flow cytometry (FRET+ cells and integrated FRET density, normalized to no insert Halo) [4] [% decrease]",Binder
1.1,no binding,,,"Frag_0-Halo (SRRM2 a.a. 2651-2752) (other, JF646 Halo ligand covalently bound to the Halo tag, PCR amplified from the SRRM2_FL-Halo cell line and expressed from a pcDNA plasmid with an added start codon) PAKPGPQALPKPASPKKPPPGERRSRSPRKPIDSLRDSRSLSYSPVERRRPSPQPSPRDQQSSSSERGSRRGQRGDSRSPSHKRRRETPSPRPMRHRSSRSPMAEIGTGFPFDPHYVEVLGERMHYVDVGPRDGTPVLFLHGNPTSSYVWRNIIPHVAPTHRCIAPDLIGMGKSDKPDLGYFFDDHVRFMDAFIEALGLEEVVLVIHDWGSALGFHWAKRNPERVKGIAFMEFIRPIPTWDEWPEFARETFQAFRTTDVGRKLIIDQNVFIEGTLPMGVVRPLTEVEMDHYREPFLNPVDREPLWRFPNELPIAGEPANIVALVEEYMDWLHQSPVPKLLFWGTPGVLIPPAEAARLAKSLPNCKAVDIGPGLNLLQEDNPDLIGSEIARWLSTLEISG"
,,0.95,,"Halo tagged 5 serine repeat (other, JF646 Halo ligand covalently bound to the Halo tag, also called 5-serines) SSSSSMAEIGTGFPFDPHYVEVLGERMHYVDVGPRDGTPVLFLHGNPTSSYVWRNIIPHVAPTHRCIAPDLIGMGKSDKPDLGYFFDDHVRFMDAFIEALGLEEVVLVIHDWGSALGFHWAKRNPERVKGIAFMEFIRPIPTWDEWPEFARETFQAFRTTDVGRKLIIDQNVFIEGTLPMGVVRPLTEVEMDHYREPFLNPVDREPLWRFPNELPIAGEPANIVALVEEYMDWLHQSPVPKLLFWGTPGVLIPPAEAARLAKSLPNCKAVDIGPGLNLLQEDNPDLIGSEIARWLSTLEISG"
1.08,no binding,,,"Halo alone (other, JF646 Halo ligand covalently bound, Control without a targeting motif; also called Halo tag; Halo protein) MAEIGTGFPFDPHYVEVLGERMHYVDVGPRDGTPVLFLHGNPTSSYVWRNIIPHVAPTHRCIAPDLIGMGKSDKPDLGYFFDDHVRFMDAFIEALGLEEVVLVIHDWGSALGFHWAKRNPERVKGIAFMEFIRPIPTWDEWPEFARETFQAFRTTDVGRKLIIDQNVFIEGTLPMGVVRPLTEVEMDHYREPFLNPVDREPLWRFPNELPIAGEPANIVALVEEYMDWLHQSPVPKLLFWGTPGVLIPPAEAARLAKSLPNCKAVDIGPGLNLLQEDNPDLIGSEIARWLSTLEISG"
,,,~50,SRRM2 C-terminus-TNPO3-halo (other) MEGAKPTLQLVYQAVQALYHDPDPSGKERASFWLGELQRSVHAWEISDQLLQIRQDVESCYFAAQTMKMKIQTSFYELPTDSHASLRDSLLTHIQNLKDLSPVIVTQLALAIADLALQMPSWKGCVQTLVEKYSNDVTSLPFLLEILTVLPEEVHSRSLRIGANRRTEIIEDLAFYSSTVVSLLMTCVEKAGTDEKMLMKVFRCLGSWFNLGVLDSNFMANNKLLALLFEVLQQDKTSSNLHEAASDCVCSALYAIENVETNLPLAMQLFQGVLTLETAYHMAVAREDLDKVLNYCRIFTELCETFLEKIVCTPGQGLGDLRTLELLLICAGHPQYEVVEISFNFWYRLGEHLYKTNDEVIHGIFKAYIQRLLHALARHCQLEPDHEGVPEETDDFGEFRMRVSDLVKDLIFLIGSMECFAQLYSTLKEGNPPWEVTEAVLFIMAAIAKSVDPENNPTLVEVLEGVVRLPETVHTAVRYTSIELVGEMSEVVDRNPQFLDPVLGYLMKGLCEKPLASAAAKAIHNICSVCRDHMAQHFNGLLEIARSLDSFLLSPEAAVGLLKGTALVLARLPLDKITECLSELCSVQVMALKKLLSQEPSNGISSDPTVFLDRLAVIFRHTNPIVENGQTHPCQKVIQEIWPVLSETLNKHRADNRIVERCCRCLRFAVRCVGKGSAALLQPLVTQMVNVYHVHQHSCFLYLGSILVDEYGMEEGCRQGLLDMLQALCIPTFQLLEQQNGLQNHPDTVDDLFRLATRFIQRSPVTLLRSQVVIPILQWAIASTTLDHRDANCSVMRFLRDLIHTGVANDHEEDFELRKELIGQVMNQLGQQLVSQLLHTCCFCLPPYTLPDVAEVLWEIMQVDRPTFCRWLENSLKGLPKETTVGAVTVTHKQLTDFHKQVTSAEECKQVCWALRDFTRLFRGTELGSTSPVWWNSADIQSRCLIAQTTPVAGSQSLSSGAVATTTSSAGDHNGMLSVPAPGVPHSDVGEPPASTGAQQPSALAALQPAKERRSSSSSSSSSSSSSSSSSSSSSSSSSGSSSSDSEGSSLPVQPEVALKRVPSPTPAPKEAVREGRPPEPTPAKRKRRSSSSSSSSSSSSSSSSSSSSSSSSSSSSSSSSSSSSSSSSSSPSPAKPGPQALPKPASPKKPPPGERRSRSPRKPIDSLRDSRSLSYSPVERRRPSPQPSPRDQQSSSSERGSRRGQRGDSRSPSHKRRRETPSPRPMRHRSGGSGGSGGGSEIGTGFPFDPHYVEVLGERMHYVDVGPRDGTPVLFLHGNPTSSYVWRNIIPHVAPTHRCIAPDLIGMGKSDKPDLGYFFDDHVRFMDAFIEALGLEEVVLVIHDWGSALGFHWAKRNPERVKGIAFMEFIRPIPTWDEWPEFARETFQAFRTTDVGRKLIIDQNVFIEGTLPMGVVRPLTEVEMDHYREPFLNPVDREPLWRFPNELPIAGEPANIVALVEEYMDWLHQSPVPKLLFWGTPGVLIPPAEAARLAKSLPNCKAVDIGPGLNLLQEDNPDLIGSEIARWLSTLEISG
,,1.05,,"Halo tagged 10 serine repeat (other, JF646 Halo ligand covalently bound to the Halo tag, also called 10-serines) SSSSSSSSSSMAEIGTGFPFDPHYVEVLGERMHYVDVGPRDGTPVLFLHGNPTSSYVWRNIIPHVAPTHRCIAPDLIGMGKSDKPDLGYFFDDHVRFMDAFIEALGLEEVVLVIHDWGSALGFHWAKRNPERVKGIAFMEFIRPIPTWDEWPEFARETFQAFRTTDVGRKLIIDQNVFIEGTLPMGVVRPLTEVEMDHYREPFLNPVDREPLWRFPNELPIAGEPANIVALVEEYMDWLHQSPVPKLLFWGTPGVLIPPAEAARLAKSLPNCKAVDIGPGLNLLQEDNPDLIGSEIARWLSTLEISG"
